Experimental data reported in publication PMC8487046.

Molecular target: acetylated BSA (AcBSA) (bovine (from the name BSA)) (UniProt P02769)
Assay: SPR; AcBSA immobilized (900 RU, CM5, amine coupling; BSA as reference surface), serially diluted SREC-II(44-442) or SR-F1(20-421) injected; TBS-Ca-P; 20 µL/min; 25 °C; global fit, 1:1 Langmuir model; apparent KD

Kd: 790 nM
koff: 0.0015 s⁻¹
kon: 2000 M⁻¹ s⁻¹
B1: SR‐F1(20‐421), SR‐F1 ectodomain (domain or fragment)
chain: SELDPKGQHVCVASSPSAELQCCAGWRQKDQECTIPICEGPDACQKDEVCVKPGLCRCKPGFFGAHCSSRCPGQYWGPDCRESCPCHPHGQCEPATGACQCQADRWGARCEFPCACGPHGRCDPATGVCHCEPGWWSSTCRRPCQCNTAAARCEQATGACVCKPGWWGRRCSFRCNCHGSPCEQDSGRCACRPGWWGPECQQQCECVRGRCSAASGECTCPPGFRGARCELPCPAGSHGVQCAHSCGRCKHNEPCSPDTGSCESCEPGWNGTQCQQPCLPGTFGESCEQQCPHCRHGEACEPDTGHCQRCDPGWLGPRCEDPCPTGTFGEDCGSTCPTCVQGSCDTVTGDCVCSAGYWGPSCNASCPAGFHGNNCSVPCECPEGLCHPVSGSCQPGSGSRDT
